From patent US20030226164, “Lambda integrase mediated recombination in plants” (Syngenta Participations AG, published 2003)

What was measured:
[1] = molecular target: T1, Lambda Int-h (SynInt-h) E174K (Bacteriophage lambda) (UniProt P03700); experiment: cell_activity; conditions: attP x attB without IHF, maize BMS cells
T1 sequence: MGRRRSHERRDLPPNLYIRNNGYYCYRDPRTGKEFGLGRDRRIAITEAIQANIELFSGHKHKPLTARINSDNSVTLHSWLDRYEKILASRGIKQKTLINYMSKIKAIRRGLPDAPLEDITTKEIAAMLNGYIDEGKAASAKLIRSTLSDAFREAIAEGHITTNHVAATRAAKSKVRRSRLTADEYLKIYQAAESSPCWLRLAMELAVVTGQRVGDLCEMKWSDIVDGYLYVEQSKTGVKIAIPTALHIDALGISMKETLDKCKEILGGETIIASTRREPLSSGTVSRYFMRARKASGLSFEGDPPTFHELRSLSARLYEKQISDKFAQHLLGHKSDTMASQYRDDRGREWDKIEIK

[2] = molecular target: T2, Lambda Int-h/218 E174K,E218K (Bacteriophage lambda) (UniProt P03700); experiment: cell_activity; conditions: attP x attB without IHF, maize BMS cells
T2 sequence: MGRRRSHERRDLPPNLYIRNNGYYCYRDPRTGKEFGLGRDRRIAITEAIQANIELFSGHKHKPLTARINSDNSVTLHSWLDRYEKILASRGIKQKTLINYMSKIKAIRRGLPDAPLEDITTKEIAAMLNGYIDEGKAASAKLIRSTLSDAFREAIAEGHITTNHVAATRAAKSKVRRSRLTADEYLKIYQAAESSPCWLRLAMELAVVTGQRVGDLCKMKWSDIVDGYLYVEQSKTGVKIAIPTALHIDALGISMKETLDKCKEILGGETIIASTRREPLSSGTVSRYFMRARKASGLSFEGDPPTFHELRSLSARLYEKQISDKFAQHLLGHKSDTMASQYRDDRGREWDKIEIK

Lambda Int-h (SynInt-h) = molecular target: T3, Lambda Int-h (SynInt-h) (Bacteriophage lambda, UniProt P03700 SEQ:1-356, E174K); experiment: cell_activity; attB x attP without IHF, maize BMS cells; conditions: chain copies: 4
T3 sequence: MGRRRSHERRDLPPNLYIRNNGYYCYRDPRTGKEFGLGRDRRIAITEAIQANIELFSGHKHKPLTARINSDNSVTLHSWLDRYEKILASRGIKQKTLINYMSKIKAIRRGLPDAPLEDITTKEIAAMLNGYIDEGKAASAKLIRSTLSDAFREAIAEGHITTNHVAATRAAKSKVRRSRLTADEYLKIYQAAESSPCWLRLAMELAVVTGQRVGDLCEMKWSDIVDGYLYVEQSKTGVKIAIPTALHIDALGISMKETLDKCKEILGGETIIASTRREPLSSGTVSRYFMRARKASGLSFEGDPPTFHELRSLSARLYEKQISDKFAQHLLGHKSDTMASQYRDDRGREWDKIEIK
Description: (§1) Bombarded BMS cells are incubated in the dark at 28° C. for 48 hours. After incubation, the cells are assayed for luciferase expression levels.

Lambda Int-h/218 = molecular target: T4, Lambda Int-h/218 (Bacteriophage lambda, UniProt P03700 SEQ:1-356, E174K,E218K); experiment: as above; conditions: chain copies: 4
T4 sequence: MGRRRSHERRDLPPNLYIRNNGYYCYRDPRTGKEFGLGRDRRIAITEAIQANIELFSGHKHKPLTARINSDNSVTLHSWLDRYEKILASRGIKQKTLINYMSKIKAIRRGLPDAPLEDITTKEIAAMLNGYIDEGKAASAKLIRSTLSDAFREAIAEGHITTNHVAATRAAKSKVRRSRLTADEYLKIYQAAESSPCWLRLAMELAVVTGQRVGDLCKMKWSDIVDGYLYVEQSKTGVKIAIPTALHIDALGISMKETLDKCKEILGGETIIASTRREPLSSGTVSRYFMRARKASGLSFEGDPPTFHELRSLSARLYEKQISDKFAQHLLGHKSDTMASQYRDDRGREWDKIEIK
Description: as §1

TCTGTTACAGGTCACTAATACCATCTAAGTAGTTGATTCATAGTGACTGCATATGTTGTGTTTTACAGTATTATGTAGTCTGTTTTTTATGCAAAATCTAATTTAATATATTGATATTTATATCATTTTACGTTTCTCGTTCAGCTTTTTTATACTAAGTTGGCATTATAAAAAAGCATTGCTTATCAATTTGTTGCAACGAACAGGTCACTATCAGTCAAAATAAAATCATTATTTGATTTC (double strand) [attP]
activity (fold luciferase over substrate alone) [1]: 15
activity (fold luciferase over substrate alone) [2]: 49

B1: attB (dsDNA)
DNA 1: TGAAGCCTGCTTTTTTATACTAACTTGAGCG
DNA 2: CGCTCAAGTTAGTATAAAAAAGCAGGCTTCA
activity (Lambda Int-h (SynInt-h)): 15 fold luciferase over substrate alone
activity (Lambda Int-h/218): 49 fold luciferase over substrate alone
